In paper PMC2995296:

Key:
[1] = biological target: 5-FAM-labeled phospho-T427 peptide of the Rad9 SCD (S. cerevisiae); experiment: fluorescence polarisation
[2] = biological target: GST-BRCT (Rad9 tandem BRCT domain fused to GST), wild type (S. cerevisiae); experiment: pull-down

GST-BRCT (Rad9 tandem BRCT domain fused to GST), wild type (domain or fragment)
Kd [1]: 78 µM

PIKK-phosphorylated N-SCD (N-terminal fragment of Rad9-TEV-HA from MMS-treated cells) (from UniProt P14737 1-990) (domain or fragment)
yield of N-SCD in the pull-down (percent of the starting material) [2]: > 10%
